Experimental data from the supplement of paper PMC6755084.

B1: F1*; the commonest letter at each place (parent)
chain: GAGACCGCAACTGAAAAGTTGTTATCACTTGTCGTAAGACACTTTGGATGGGTTGAAGTTCTGCACGTAGAAGCAAAAGGC

Variants of: B1
Test: fraction ligated after 30 min (ligated reads / total reads); higher = more ligase activity
Conditions: with F1*sub RNA substrate (template-directed ligation), 42 °C
Protocol: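 Chip-synthesised pool of F1* ligase ribozyme variants (all single and double substitutions, single, double and triple deletions in the catalytic core and GAA bulge, plus designed variants) was transcribed with T7 and reacted as a pool with excess substrate F1*sub for 30 min at 42 C in 50 mM EPPS pH 8.5, 25 mM MgCl2. Ligated and unligated bands were separated by PAGE, barcoded by RT and deep sequenced; fraction ligated = ligated reads / total reads per variant, relative activity = FL / FL of wild type (0.826). Sequences are the DNA template of the ribozyme.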

Point of comparison: GAGACCGCAACTGAAAAGTTGTTATCCCTTGTCGTAAGACACTTTGGATGGGTTAAAGTTCTGCACGTAGAAGCAAAAGGC, fraction ligated 0.805. Against it:
- GAGACCGCAACTGAAAAGTTGTTATTACTTGTCGTAAGACACTTTGGACGGGTTGAAGTTCTGCACGTAGAAGCAAAAGGC — lower, 0.122
- GAGACCGCAACTGAAAAGTTGTTATTACTTGTCGTAAGACACTTTGGAGGGGTTGAAGTTCTGCACGTAGAAGCAAAAGGC — lower, 0.405
- GAGACCGCAACTGAAAAGTTGTTATCCCTTGTCGTAAGACACTTTGGATGGGTTGAAGTTCTGCACGTAGAAGCAAAAGGC — higher, 0.81
- GAGACCGCAACTGAAAAGTTGTTATCCCTTGTCGTCAGACACTTTGGATGGGTTGAAGTTCTGCACGTAGAAGCAAAAGGC — lower, 0.793
- GAGACCGCAACTGAAAAGTTGTTATCCCTTGTCGTGAGACACTTTGGATGGGTTGAAGTTCTGCACGTAGAAGCAAAAGGC — higher, 0.821
- GAGACCGCAACTGAAAAGTTGTTATCCCTTGTCGTTAGACACTTTGGATGGGTTGAAGTTCTGCACGTAGAAGCAAAAGGC — higher, 0.817
- GAGACCGCAACTGAAAAGTTGTTATCCCTTGTCGTACGACACTTTGGATGGGTTGAAGTTCTGCACGTAGAAGCAAAAGGC — lower, 0.793
- GAGACCGCAACTGAAAAGTTGTTATCCCTTGTCGTAGGACACTTTGGATGGGTTGAAGTTCTGCACGTAGAAGCAAAAGGC — higher, 0.817
- GAGACCGCAACTGAAAAGTTGTTATCCCTTGTCGTATGACACTTTGGATGGGTTGAAGTTCTGCACGTAGAAGCAAAAGGC — higher, 0.82
- GAGACCGCAACTGAAAAGTTGTTATCCCTTGTCGTAAGCCACTTTGGATGGGTTGAAGTTCTGCACGTAGAAGCAAAAGGC — lower, 0.785
- GAGACCGCAACTGAAAAGTTGTTATCCCTTGTCGTAAGGCACTTTGGATGGGTTGAAGTTCTGCACGTAGAAGCAAAAGGC — higher, 0.809
- GAGACCGCAACTGAAAAGTTGTTATCCCTTGTCGTAAGTCACTTTGGATGGGTTGAAGTTCTGCACGTAGAAGCAAAAGGC — lower, 0.789
- GAGACCGCAACTGAAAAGTTGTTATCCCTTGTCGTAAGACCCTTTGGATGGGTTGAAGTTCTGCACGTAGAAGCAAAAGGC — lower, 0.782
- GAGACCGCAACTGAAAAGTTGTTATCCCTTGTCGTAAGACGCTTTGGATGGGTTGAAGTTCTGCACGTAGAAGCAAAAGGC — lower, 0.781
- GAGACCGCAACTGAAAAGTTGTTATCCCTTGTCGTAAGACTCTTTGGATGGGTTGAAGTTCTGCACGTAGAAGCAAAAGGC — lower, 0.785
- GAGACCGCAACTGAAAAGTTGTTATCCCTTGTCGTAAGACACTTTGGCTGGGTTGAAGTTCTGCACGTAGAAGCAAAAGGC — lower, 0.748
- GAGACCGCAACTGAAAAGTTGTTATCCCTTGTCGTAAGACACTTTGGGTGGGTTGAAGTTCTGCACGTAGAAGCAAAAGGC — lower, 0.256
- GAGACCGCAACTGAAAAGTTGTTATCCCTTGTCGTAAGACACTTTGGTTGGGTTGAAGTTCTGCACGTAGAAGCAAAAGGC — lower, 0.78
- GAGACCGCAACTGAAAAGTTGTTATCCCTTGTCGTAAGACACTTTGGATGGGTTGCAGTTCTGCACGTAGAAGCAAAAGGC — lower, 0.75
- GAGACCGCAACTGAAAAGTTGTTATCCCTTGTCGTAAGACACTTTGGATGGGTTGGAGTTCTGCACGTAGAAGCAAAAGGC — lower, 0.742
- GAGACCGCAACTGAAAAGTTGTTATCCCTTGTCGTAAGACACTTTGGATGGGTTGTAGTTCTGCACGTAGAAGCAAAAGGC — lower, 0.787
- GAGACCGCAACTGAAAAGTTGTTATCCCTTGTCGTAAGACACTTTGGATGGGTTGACGTTCTGCACGTAGAAGCAAAAGGC — lower, 0.787
- GAGACCGCAACTGAAAAGTTGTTATCCCTTGTCGTAAGACACTTTGGATGGGTTGAGGTTCTGCACGTAGAAGCAAAAGGC — lower, 0.773
- GAGACCGCAACTGAAAAGTTGTTATCCCTTGTCGTAAGACACTTTGGATGGGTTGATGTTCTGCACGTAGAAGCAAAAGGC — higher, 0.807
- GAGACCGCAACTGAAAAGTTGTTATCCATTGTCGTAAGACACTTTGGATGGGTTGAAGTTCTGCACGTAGAAGCAAAAGGC — higher, 0.807
- GAGACCGCAACTGAAAAGTTGTTATCCGTTGTCGTAAGACACTTTGGATGGGTTGAAGTTCTGCACGTAGAAGCAAAAGGC — higher, 0.807
- GAGACCGCAACTGAAAAGTTGTTATCCTTTGTCGTAAGACACTTTGGATGGGTTGAAGTTCTGCACGTAGAAGCAAAAGGC — higher, 0.819
- GAGACCGCAACTGAAAAGTTGTTATCCCTTGTAGTAAGACACTTTGGATGGGTTGAAGTTCTGCACGTAGAAGCAAAAGGC — higher, 0.827
- GAGACCGCAACTGAAAAGTTGTTATCCCTTGTGGTAAGACACTTTGGATGGGTTGAAGTTCTGCACGTAGAAGCAAAAGGC — higher, 0.815
- GAGACCGCAACTGAAAAGTTGTTATCCCTTGTTGTAAGACACTTTGGATGGGTTGAAGTTCTGCACGTAGAAGCAAAAGGC — lower, 0.795
- GAGACCGCAACTGAAAAGTTGTTATCCCTTGTCGTAAGAAACTTTGGATGGGTTGAAGTTCTGCACGTAGAAGCAAAAGGC — higher, 0.817
- GAGACCGCAACTGAAAAGTTGTTATCCCTTGTCGTAAGAGACTTTGGATGGGTTGAAGTTCTGCACGTAGAAGCAAAAGGC — lower, 0.783
- GAGACCGCAACTGAAAAGTTGTTATCCCTTGTCGTAAGATACTTTGGATGGGTTGAAGTTCTGCACGTAGAAGCAAAAGGC — higher, 0.818
- GAGACCGCAACTGAAAAGTTGTTATCCCTTGTCGTAAGACAATTTGGATGGGTTGAAGTTCTGCACGTAGAAGCAAAAGGC — higher, 0.818
- GAGACCGCAACTGAAAAGTTGTTATCCCTTGTCGTAAGACAGTTTGGATGGGTTGAAGTTCTGCACGTAGAAGCAAAAGGC — higher, 0.831
- GAGACCGCAACTGAAAAGTTGTTATCCCTTGTCGTAAGACATTTTGGATGGGTTGAAGTTCTGCACGTAGAAGCAAAAGGC — higher, 0.816
- GAGACCGCAACTGAAAAGTTGTTATCCCTTATCGTAAGACACTTTGGATGGGTTGAAGTTCTGCACGTAGAAGCAAAAGGC — higher, 0.824
- GAGACCGCAACTGAAAAGTTGTTATCCCTTCTCGTAAGACACTTTGGATGGGTTGAAGTTCTGCACGTAGAAGCAAAAGGC — higher, 0.835
- GAGACCGCAACTGAAAAGTTGTTATCCCTTTTCGTAAGACACTTTGGATGGGTTGAAGTTCTGCACGTAGAAGCAAAAGGC — lower, 0.789
- GAGACCGCAACTGAAAAGTTGTTATCCCTTGTCATAAGACACTTTGGATGGGTTGAAGTTCTGCACGTAGAAGCAAAAGGC — higher, 0.809
- GAGACCGCAACTGAAAAGTTGTTATCCCTTGTCCTAAGACACTTTGGATGGGTTGAAGTTCTGCACGTAGAAGCAAAAGGC — higher, 0.808
- GAGACCGCAACTGAAAAGTTGTTATCCCTTGTCTTAAGACACTTTGGATGGGTTGAAGTTCTGCACGTAGAAGCAAAAGGC — higher, 0.815
- GAGACCGCAACTGAAAAGTTGTTATCCCTTGTCGTAAAACACTTTGGATGGGTTGAAGTTCTGCACGTAGAAGCAAAAGGC — higher, 0.807
- GAGACCGCAACTGAAAAGTTGTTATCCCTTGTCGTAACACACTTTGGATGGGTTGAAGTTCTGCACGTAGAAGCAAAAGGC — lower, 0.792
- GAGACCGCAACTGAAAAGTTGTTATCCCTTGTCGTAATACACTTTGGATGGGTTGAAGTTCTGCACGTAGAAGCAAAAGGC — higher, 0.837
- GAGACCGCAACTGAAAAGTTGTTATCCCTTGTCGTAAGACACTTTAGATGGGTTGAAGTTCTGCACGTAGAAGCAAAAGGC — higher, 0.82
- GAGACCGCAACTGAAAAGTTGTTATCCCTTGTCGTAAGACACTTTCGATGGGTTGAAGTTCTGCACGTAGAAGCAAAAGGC — lower, 0.782
- GAGACCGCAACTGAAAAGTTGTTATCCCTTGTCGTAAGACACTTTTGATGGGTTGAAGTTCTGCACGTAGAAGCAAAAGGC — lower, 0.78
- GAGACCGCAACTGAAAAGTTGTTATCCCTTGTCGTAAGACACTTTGAATGGGTTGAAGTTCTGCACGTAGAAGCAAAAGGC — lower, 0.799
- GAGACCGCAACTGAAAAGTTGTTATCCCTTGTCGTAAGACACTTTGCATGGGTTGAAGTTCTGCACGTAGAAGCAAAAGGC — lower, 0.158
- GAGACCGCAACTGAAAAGTTGTTATCCCTTGTCGTAAGACACTTTGTATGGGTTGAAGTTCTGCACGTAGAAGCAAAAGGC — lower, 0.126
- GAGACCGCAACTGAAAAGTTGTTATCCCTTGTCGTAAGACACTTTGGATAGGTTGAAGTTCTGCACGTAGAAGCAAAAGGC — lower, 0.18
- GAGACCGCAACTGAAAAGTTGTTATCCCTTGTCGTAAGACACTTTGGATCGGTTGAAGTTCTGCACGTAGAAGCAAAAGGC — lower, 0.0749
- GAGACCGCAACTGAAAAGTTGTTATCCCTTGTCGTAAGACACTTTGGATTGGTTGAAGTTCTGCACGTAGAAGCAAAAGGC — lower, 0.37
- GAGACCGCAACTGAAAAGTTGTTATCCCTTGTCGTAAGACACTTTGGATGGGTTCAAGTTCTGCACGTAGAAGCAAAAGGC — lower, 0.355
- GAGACCGCAACTGAAAAGTTGTTATCCCTTGTCGTAAGACACTTTGGATGGGTTTAAGTTCTGCACGTAGAAGCAAAAGGC — lower, 0.792
- GAGACCGCAACTGAAAAGTTGTTATCCCATGTCGTAAGACACTTTGGATGGGTTGAAGTTCTGCACGTAGAAGCAAAAGGC — higher, 0.818
- GAGACCGCAACTGAAAAGTTGTTATCCCCTGTCGTAAGACACTTTGGATGGGTTGAAGTTCTGCACGTAGAAGCAAAAGGC — lower, 0.802
- GAGACCGCAACTGAAAAGTTGTTATCCCGTGTCGTAAGACACTTTGGATGGGTTGAAGTTCTGCACGTAGAAGCAAAAGGC — lower, 0.797
- GAGACCGCAACTGAAAAGTTGTTATCCCTAGTCGTAAGACACTTTGGATGGGTTGAAGTTCTGCACGTAGAAGCAAAAGGC — lower, 0.783
- GAGACCGCAACTGAAAAGTTGTTATCCCTCGTCGTAAGACACTTTGGATGGGTTGAAGTTCTGCACGTAGAAGCAAAAGGC — lower, 0.774
- GAGACCGCAACTGAAAAGTTGTTATCCCTGGTCGTAAGACACTTTGGATGGGTTGAAGTTCTGCACGTAGAAGCAAAAGGC — higher, 0.825
- GAGACCGCAACTGAAAAGTTGTTATCCCTTGACGTAAGACACTTTGGATGGGTTGAAGTTCTGCACGTAGAAGCAAAAGGC — lower, 0.799
- GAGACCGCAACTGAAAAGTTGTTATCCCTTGCCGTAAGACACTTTGGATGGGTTGAAGTTCTGCACGTAGAAGCAAAAGGC — lower, 0.754
- GAGACCGCAACTGAAAAGTTGTTATCCCTTGGCGTAAGACACTTTGGATGGGTTGAAGTTCTGCACGTAGAAGCAAAAGGC — lower, 0.78
- GAGACCGCAACTGAAAAGTTGTTATCCCTTGTCGAAAGACACTTTGGATGGGTTGAAGTTCTGCACGTAGAAGCAAAAGGC — higher, 0.835
- GAGACCGCAACTGAAAAGTTGTTATCCCTTGTCGCAAGACACTTTGGATGGGTTGAAGTTCTGCACGTAGAAGCAAAAGGC — higher, 0.813
